Experimental data taken from US20190106493A1 (MABQUEST, published 2019).

Experiments:
PD-1 Fc fusion protein = molecular target: T1, PD-1 Fc fusion protein (human, UniProt Q15116 25-167, limits assumed); assay: FIG. 5A; Luminex, PD-1 Fc beads, antibody titrated, competitor: fixed biotinylated PD-L1
T1 construct: construct limits, linker and Fc not described; the bead protein is printed only as 'PD-1 Fc fusion protein'; also called human PD-1 Fc fusion protein; PD-1 Fc fusion protein coated beads

[1] = molecular target: endogenous cell surface PD-1 on activated CD4 T cells (human, UniProt Q15116 25-288); assay: cell-based or functional assay
Sequence of endogenous cell surface PD-1 on activated CD4 T cells (Q15116 25-288): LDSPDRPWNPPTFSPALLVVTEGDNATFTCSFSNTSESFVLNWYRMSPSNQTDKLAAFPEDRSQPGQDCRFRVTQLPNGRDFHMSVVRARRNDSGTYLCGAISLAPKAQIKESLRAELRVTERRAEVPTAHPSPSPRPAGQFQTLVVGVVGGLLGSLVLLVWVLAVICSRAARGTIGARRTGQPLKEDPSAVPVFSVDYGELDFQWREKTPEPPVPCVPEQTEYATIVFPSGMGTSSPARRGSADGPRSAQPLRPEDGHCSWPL

T1 sequence (Q15116 25-167 limits assumed): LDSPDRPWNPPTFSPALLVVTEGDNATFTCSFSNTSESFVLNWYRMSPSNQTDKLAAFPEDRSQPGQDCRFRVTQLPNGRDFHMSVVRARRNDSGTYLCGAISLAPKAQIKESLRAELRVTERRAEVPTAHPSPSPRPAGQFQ

| IC50 (PD-1 Fc fusion protein) | EFRA % relative to peptide stimulation alone [1] | Binder |
| --- | --- | --- |
| ~0.2 nM | 250% | 137F2 (antibody, V domains shown) VH: QVQLQQPGAELVRPGTSVKMSCKAAGYTFTNYWIGWIKQRPGHGLEWIGDIYPGGGYTNYNEKFKGKATLTADTSSSTAYMQVSSLTSEDTGIYYCARGYDFVLDRWGQGTSVTVSS VL: DIVMSQSPSSLAVSTGEKVTMTCKSSQSLFNSETQKNYLAWYQQKPGQPPKLLIFWASTRESGVPDRFLGSGSGTDFTLTISSVQAEDLAVYYCKQSYTLRTFGGGTKLEIK |
| – | 195% | 135C12 (antibody, V domains shown) VH: EVQLHQSGPELLKPGASVRMSCKASGYTFTNFYIHWVKQSHGKSIEWIGSIYPNYGDTAYNQKFKDKATLTVDKSSSTAYMALRSLTSEDSAVYYCARGYSYAMDYWGQGTSVTVSS VL: NIVMTQSPKSMSMSVGERVTLTCKASENVVTYVSWYQQKPEQSPKLLIYGASNRYTGVPDRFTGSGSATDFTLTISSVQAEDLADYHCGQGYSYPYTFGGGTKLEIK |
